From patent publication US20250257338A1 (JCR PHARMACEUTICALS, published 2025)
Numbering of substitutions follows the chain as printed. In names and notes the source's numbering stands.

B1: Fab-IDS (WT), fusion protein of wild-type hIDS and an anti-hTfR (Fab) antibody (Fab)
heavy: EVQLVQSGAEVKKPGESLKISCKGSGYSFMNYWLGWVRQMPGKGLEWMGDIYPGGDYPTYSEKFKVQVTISADKSISTAYLQLSSLKASDTAMYYCARSGNYDEVAYWGQGTLVTVSSASTKGPSVFPLAPSSKSTSGGTAALGCLVKDYFPEPVTVSWNSGALTSGVHTFPAVLQSSGLYSLSSVVTVPSSSLGTQTYICNVNHKPSNTKVDKKVEPKSCDKTHTGGGGSGGGGSGGGGSSETQANSTTDALNVLLIIVDDLRPSLGCYGDKLVRSPNIDQLASHSLLFQNAFAQQAVCAPSRVSFLTGRRPDTTRLYDFNSYWRVHAGNFSTIPQYFKENGYVTMSVGKVFHPGISSNHTDDSPYSWSFPPYHPSSEKYENTKTCRGPDGELHANLLCPVDVLDVPEGTLPDKQSTEQAIQLLEKMKTSASPFFLAVGYHKPHIPFRYPKEFQKLYPLENITLAPDPEVPDGLPPVAYNPWMDIRQREDVQALNISVPYGPIPVDFQRKIRQSYFASVSYLDTQVGRLLSALDDLQLANSTIIAFTSDHGWALGEHGEWAKYSNFDVATHVPLIFYVPGRTASLPEAGEKLFPYLDPFDSASQLMEPGRQSMDLVELVSLFPTLAGLAGLQVPPRCPVPSFHVELCREGKNLLKHFRFRDLEEDPYLPGNPRELIAYSQYPRPSDIPQWNSDKPSLKDIKIMGYSIRTIDYRYTVWVGFNPDEFLANFSDIHAGELYFVDSDPLQDHNMYNDSQGGDLFQLLMP
light: DIVMTQTPLSLSVTPGQPASISCRSSQSLVHSNGNTYLHWYLQKPGQSPQLLIYKVSNRFSGVPDRFSGSGSGTDFTLKISRVEAEDVGVYYCSQSTHVPWTFGQGTKVEIKRTVAAPSVFIFPPSDEQLKSGTASVVCLLNNFYPREAKVQWKVDNALQSGNSQESVTEQDSKDSTYSLSSTLTLSKADYEKHKVYACEVTHQGLSSPVTKSFNRGEC
modifications: N-linked sugar chains containing mannose-6-phosphate (M6P) on the asparagines at positions 221 and 255 of the hIDS portion (numbering of SEQ ID NO: 1)
notes: Humanized anti-hTfR Fab; Expressed in ExpiCHO cells
B2: Fab-IDS (m1), fusion protein of hIDS mutant muhIDS-1 (T223A, S257A) and an anti-hTfR (Fab) antibody (Fab)
heavy: B1 heavy with T464A, S498A
light: B1 light
B3: Fab-IDS (m2), fusion protein of hIDS mutant muhIDS-2 (N221Q, N255Q) and an anti-hTfR (Fab) antibody (Fab)
heavy: B1 heavy with N462Q, N496Q
light: B1 light

Experiments:
[1] = biological target: T1, human TfR extracellular region with N-terminal histidine tag, hTfR-ECD (His tag) (human, UniProt P02786 87-760); assay: BLI (Octet RED96), hTfR-ECD (His tag) on Ni-NTA biosensor, 1:1 model
T1 construct: Loaded on the Ni-NTA biosensor in the BLI assay; 760 is the known length of human TfR, not a printed number; not shown: histidine tag at the N-terminus
T1 sequence (P02786 other isoform, or with tags, fused parts or gaps): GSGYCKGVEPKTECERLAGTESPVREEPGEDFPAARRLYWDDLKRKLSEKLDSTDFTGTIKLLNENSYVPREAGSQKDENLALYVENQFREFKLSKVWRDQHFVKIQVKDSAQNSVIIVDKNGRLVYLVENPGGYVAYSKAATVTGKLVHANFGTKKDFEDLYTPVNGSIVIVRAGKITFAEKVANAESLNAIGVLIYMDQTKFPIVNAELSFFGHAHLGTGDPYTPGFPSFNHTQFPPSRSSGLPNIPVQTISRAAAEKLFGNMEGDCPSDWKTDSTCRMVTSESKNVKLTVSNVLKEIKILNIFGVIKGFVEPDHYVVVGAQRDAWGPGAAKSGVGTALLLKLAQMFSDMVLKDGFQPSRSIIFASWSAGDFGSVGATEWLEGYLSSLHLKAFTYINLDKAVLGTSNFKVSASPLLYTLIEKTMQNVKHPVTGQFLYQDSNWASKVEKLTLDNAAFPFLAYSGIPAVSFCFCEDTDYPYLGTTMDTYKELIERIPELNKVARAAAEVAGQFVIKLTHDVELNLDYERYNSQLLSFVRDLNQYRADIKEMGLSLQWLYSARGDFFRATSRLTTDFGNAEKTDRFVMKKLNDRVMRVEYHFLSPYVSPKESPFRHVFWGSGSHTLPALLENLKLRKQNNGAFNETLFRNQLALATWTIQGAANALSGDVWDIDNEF
Description: In addition, hTfR was adjusted to a concentration of 25 ng/ml, using HBS-P+ (1% BSA) to obtain an hTfR-ECD (His tag) solution.
(§1) The sample solution for hTfR affinity measurement was added to a 96-well plate, black (Greiner Bio-One International GmbH) at 200 μL/well. The hTfR-ECD (His tag) solution was added to predetermined wells at 200 μL/well. HBS-P+ (1% BSA) was added to wells for baseline, dissociation, and washing at 200 μL/well. 10 mM Glycine-HCl (pH 1.7) was added to wells for regeneration at 200 μL/well. 0.5 mM NiCl₂ (1% BSA) solution was added to wells for activation at 200 μL/well. This plate and a biosensor (Biosensor/Ni-NTA, ForteBio) were placed at predetermined positions in the Octet RED96.
Note that the measurement was carried out at a temperature of 25 to 30° C.

[2] = biological target: T2, human mannose-6-phosphate receptor (cation-independent) domain 9 recombinant protein with C-terminal … (human, UniProt P11717 1219-1364); assay: BLI (Octet RED96), M6PR domain 9 (His tag) on Ni-NTA biosensor, 1:1 model
T2 construct: Loaded on the Ni-NTA biosensor; also called human M6PR; M6PR
T2 sequence (P11717 other isoform, or with tags, fused parts or gaps limits assumed): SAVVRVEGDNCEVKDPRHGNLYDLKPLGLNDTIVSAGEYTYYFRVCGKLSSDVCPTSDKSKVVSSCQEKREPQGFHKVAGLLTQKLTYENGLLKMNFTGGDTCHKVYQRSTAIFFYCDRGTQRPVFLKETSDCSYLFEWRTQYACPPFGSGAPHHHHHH
Description: (§2) As the human M6PR, there was used a protein having the amino acid sequence represented by SEQ ID NO: 42, in which restriction enzyme-derived amino acids were added to both ends of the amino acid sequence corresponding to domain 9 from valine at the 1219th position to phenylalanine at the 1364th position from the N-terminus side in the amino acid sequence of a cation-independent mannose-6-phosphate receptor represented by SEQ ID NO: 41, and a histidine tag was further added to the C-terminus thereof.
(§3) In addition, human M6PR was adjusted to a concentration of […] with HBS-P+ to obtain an M6PR (His tag) solution.
as §1, with “M6PR” for “hTfR”, “M6PR” for “hTfR-ECD”, “HBS-P+” for “HBS-P+ (1% BSA)”, “NiCl₂” for “NiCl₂ (1% BSA)”

[3] = biological target: T2, human mannose-6-phosphate receptor …; assay: BLI (Octet RED96), M6PR (His tag) on Ni-NTA biosensor
Description: as §2, §3
as §1, with “M6PR” for “hTfR”, “M6PR” for “hTfR-ECD”, “HBS-P+” for “HBS-P+ (1% BSA)”, “NiCl₂” for “NiCl₂ (1% BSA)”

Row | Binder | Kd [1] | koff [1] | kon [1] | Kd [2] | koff [2] | kon [2] | binding result [3]
1 | B1 | 0.67 nM | 0.000331 s⁻¹ | 494000 M⁻¹ s⁻¹ | 2.32 nM | 0.000586 s⁻¹ | 253000 M⁻¹ s⁻¹ | –
2 | B2 | 0.678 nM | 0.000331 s⁻¹ | 489000 M⁻¹ s⁻¹ | – | – | – | no binding
3 | B3 | 0.661 nM | 0.00031 s⁻¹ | 469000 M⁻¹ s⁻¹ | – | – | – | no binding
